Data as given in US8993741B2, “SMNdelta7 degron: novel compositions and methods of use” (The Trustees of the University of Pennsylvania, priority 2009, dated 2015).

What was measured:
293T cells [1] = test: Level of HA-tagged SMN proteins, Western blot with anti-HA antibody; assay type: cell-based; settings: without MG132 treatment
Procedure: FIG. 3, comprising FIG. 3A through FIG. 3D, is a series of images depicting the importance of residue S270 for the activity of the SMNΔ7-DEG through YG+EMLA. FIG. 3A is a schematic illustration depicting seven residues in the YG box that were each mutated to alanine, as indicated. […] depicts the results of Western blot analyses using an anti-HA tag antibody directed against HA-tagged SMN, SMNΔ7, and SMNΔ7^S270A expressed in 293T cells treated with DMSO or 10 μM MG132 (MG) for 16 hours. Fusion proteins were monitored by, and Magoh was used as a control. FIG. 3C is a graph depicting the quantification of HA-tagged proteins depicted in FIG. 3B and compared to HA-SMN without MG132 treatment. Protein amount (%) for SMNΔ7, and SMNΔ7^S270A are calculated relative to HA-SMN not treated with MG132, that is arbitrarily set to 100%. The fold change of each fusion protein amount upon MG132 treatment is indicated in red above the column. […]
To identify specific residues in the SMN07-DEG that are important for its activity, mutagenesis of the YG box was performed wherein every second residue was converted to alanine in the context of full-length SMNΔ7 and determined the half-life of each in 293T cells. […] The levels of the tagged SMN proteins were then monitored by Western blots using anti-HA antibody (FIG. 3B).

293T cells [2] = test: Protein stability assay: luciferase activity of Luc-fused constructs after CHX treatment; assay type: cell-based; settings: Luc fusion in 293T cells, CHX 0.1 mg/ml, up to 10 hours
Description: To construct plasmids expressing Luc-fused proteins, the luciferase gene was cloned into pcDNA3.1 vector at HindIII/KpnI sites, then DNA fragments encoding full-length wild type human SMN, SMNΔ7, several deletion mutants of SMNΔ7, and optiPEST were inserted into the KpnI/XhoI sites. SMNΔ7 mutants with single amino acid change were generated by mutating residues in YG+EMLA to alanine by Quickchange site-directed mutagenesis kit (Stratagene).
Cells (293T cells) were transfected with plasmids expressing various constructs including Luc-SMN, Luc-SMNΔ7, GFP-YG+EMLA or GFP-NS. Forty-eight hours after transfection, the cells were treated with CHX (0.1 mg/ml) for various times as indicated and then assayed for luciferase activity. Luciferase activity at each time point was calculated by comparison to those at time 0, which was set to 100%. Luciferase activities were measured using One-Glo reagent (Promega).
A reporter system that recapitulates the differential stability of full-length SMN and SMNΔ7 and allows quantitative assessment of SMNΔ7's instability determinants was developed. […] Forty-eight hours after transfection, cells were treated with the protein synthesis inhibitor cycloheximide (CHX), and luciferase activity was measured at time intervals of up to 10 hours. […]

S5 cells = test: Rescue of S5 cell viability after tetracycline depletion of SMN; assay type: cell-based, chicken; settings: retroviral expression, one week after tetracycline (1 μg/ml)
Procedure: FIG. 4, comprising FIG. 4A through FIG. 4D, is a series of images depicting the functionality of SMNΔ7^S270A in snRNP assembly and its ability to rescue SMN-deficient cells. FIG. 4 A is a series of panels depicting S5 cells cultured in the presence of tetracycline (1 μg/ml) to deplete endogenous SMN and infected with retroviruses expressing SMN, SMNΔ7, or SMNΔ7^S270A. FIG. 4B is a graph depicting cell growth as in FIG. 4A measured by monitoring the number of live cells at the indicated time points following tetracycline addition. FIG. 4C depicts the results of Western blot analyses of SMN protein in rescued cells (10 days after tetracycline addition). FIG. 4D is a graph depicting SMN complex activity (%) as measured by in vitro snRNP assembly on U4 snRNA in cytoplasmic extracts from rescued cells, using U4ΔSm RNA as a control.
S5 cells were maintained and infected with retroviruses expressing SMN, SMNΔ7, and SMNΔ7^S270A as described (Wang et al., 2001, J. Biol. Chem. 276:9599).
To determine whether SMNΔ7^S270A is a functional SMN protein, a previously established cell system, the S5 cell line, was used to investigate if SMNΔ7^S270A could rescue the viability of SMN-depleted cells. […]

B1: SMNΔ7: SMN protein from exon 7 skipping, lacks C-terminal 16 amino acids and acquires EMLA (protein, listed as Homo sapiens)
chain: MAMSSGGSGGGVPEQEDSVLFRRGTGQSDDSDIWDDTALIKAYDKAVASFKHALKNGDICETSGKPKTTPKRKPAKKNKSQKKNTAASLQQWKVGDKCSAIWSEDGCIYPATIASIDFKRETCVVVYTGYGNREEQNLSDLLSPICEVANNIEQNAQENENESQVSTDESENSRSPGNKSDNIKPKSAPWNSFLPPPPPMPGPRLGPGKPGLKFNGPPPPPPPPPPHLLSCWLPPFPSGPPIIPPPPPICPDSLDDADALGSMLISWYMSGYHTGYYMEMLA
293T cells [1]
  amount of HA-tagged protein: much lower than that of SMN
293T cells [2]
  half-life (t1/2): ~3 h
S5 cells
  rescue of viability of SMN-depleted S5 cells: did not
